Assay results from US20160235814A1.

Molecular target: human IgG (coated on 96-well plates to form immune complexes, IC) (human)
Experiment: cell-based or functional assay

Human sCD32 (SM101), recombinant soluble human FcγRIIB (from UniProt P31994 46-221) (receptor)
ROS production by IC-activated human neutrophils (scale: % reduction of ROS production at 0.01 mg/ml sCD32): 30 | ROS production by IC-activated human neutrophils (scale: % reduction of ROS production at 0.1 mg/ml sCD32): 65 | ROS production by IC-activated human neutrophils (scale: % reduction of ROS production at 0.5 mg/ml sCD32): 75
